Values belong to the molecule of their own block, whether it stands above or below them. *1 amine or outer side, *2 acyl side, *3 side chain or, on linkers, in order; H or OH if unused. Where a SMILES comes first, the peptide text is derived from it. Primed or numbered codes have the meaning given here. [ ]: non-standard residue; d: D form. aTyr = Tyr with an NH2 on the backbone amide nitrogen (N-amino residue), NN([C@@H](Cc1ccc(O[*:3])cc1)C(=O)[*:2])[*:1]; aIle″ = Ile with an NH2 on the backbone amide nitrogen (N-amino residue), CC[C@H](C)[C@@H](C(=O)[*:2])N(N)[*:1]; aVal″ = Val with an NH2 on the backbone amide nitrogen (N-amino residue), CC(C)[C@@H](C(=O)[*:2])N(N)[*:1]; N(NH2)Lys = NCCCC[C@H](NN)C(=O)O
Columns and labels:
[1] = Human serum stability assay; conditions: after 24 h, 37° C., HPLC
Method: Human Serum Stability Assay. The stability of NAPs in 25% human serum (MilliporeSigma) was assessed by HPLC. The reaction was started by adding NAPs at a final concentration of 500 μM in pre-warmed serum. The mixture was incubated at 37° C. for 24 h. A 100 μL aliquot of the reaction mixture was taken out at 0, 1, 4, and 24 h and was mixed with an equal volume of 20% trichloroacetic acid and incubated at 4° C. for 15 min to precipitate serum proteins. After centrifugation at 12,000 rpm for 10 min, the supernatant was collected and mixed with an internal standard (1 mg/mL Cbz-Tyr-OH dissolved in MeCN) and stored at −20° C. Samples were then analyzed by LC-MS, and the percentage of peptide remaining was calculated by integrating peaks.

AcPHF6 = target: T1, AcPHF6 (Homo sapiens, UniProt P10636); conditions: Chem. Eur. J. 2017, 23, 9618; cited from earlier work
T1 construct: AcPHF6; Ac-Val-Gln-Ile-Val-Tyr-Lys-NH2; 790.4833

tauP301L [2] = target: T2, tauP301L (Homo sapiens, UniProt P10636, P618L); test: ThT fluorescence aggregation assay of recombinant tauP301L; format: biochemical; conditions: 20 μM NAP (2-fold molar excess), 10 μM tauP301L, heparin, 48 h
T2 construct: we expressed and purified full-length tau featuring a P301L mutation; His6 (N); made in house; host or cells: E. coli BL21 (DE3)
T2 sequence (P10636 1-383 isoform P10636-6 P243L): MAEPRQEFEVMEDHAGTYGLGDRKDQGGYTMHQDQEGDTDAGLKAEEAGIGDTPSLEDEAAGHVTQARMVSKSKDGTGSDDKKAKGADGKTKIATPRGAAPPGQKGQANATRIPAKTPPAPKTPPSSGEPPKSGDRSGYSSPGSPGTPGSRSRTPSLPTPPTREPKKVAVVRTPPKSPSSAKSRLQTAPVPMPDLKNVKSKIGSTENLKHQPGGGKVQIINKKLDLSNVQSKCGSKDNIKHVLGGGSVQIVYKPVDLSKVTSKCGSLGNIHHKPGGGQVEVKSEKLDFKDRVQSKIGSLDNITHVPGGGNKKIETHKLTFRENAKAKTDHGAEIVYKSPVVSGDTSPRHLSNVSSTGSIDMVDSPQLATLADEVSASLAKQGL
Source text: (§1) NAP Tau Mimics Inhibit Tau Fibrilization In Vitro. We chose thioflavin T (ThT), an amyloid specific fluorescent dye that binds to β-sheet assemblies, to first evaluate the effect of NAPs on recombinant tau aggregation. For these studies, we expressed and purified full-length tau featuring a P301L mutation frequently observed in patients with frontotemporal dementia and Parkinsonism linked to chromosome 17 (FTDP-17). This missense mutation leads to local structure destabilization around the amyloid-forming region resulting in faster aggregation. Recombinant tauP301L aggregated in the presence of equimolar heparin sulfate (t1/2=6.5±0.4 h) starting with a very short 0.5 h lag phase, followed by a 24 h exponential growth phase. […] Compounds 2 and 4 are mono- and diaminated hexapeptides derived from the R2 PHF6* aggregation-prone sequence, whereas compounds 5, 6, 12, and 13 are all derived from the R3 PHF6 sequence. Several other NAPs had no effect on endpoint ThT fluorescence or lacked consistent inhibition across repeated experiments. […] NaOAc buffer, as evidenced by intense ThT fluorescence after 48 h (FIG. 1B).
Inhibition of full-length tau aggregation by mxyl-NAPs in a ThT assay. […] TauP301L ([…]) aggregated upon incubation with heparin over the course of 2 days, leading to high ThT fluorescence. […] We also synthesized linear and scrambled controls corresponding to each of the NAP inhibitors.
ThT Fluorescence Aggregation Assay. Recombinant tauP301L (10 μM final concentration) and NAP inhibitors (20 μM final concentration) were mixed in an aggregation buffer (100 mM sodium acetate, 10 μM ThT, 10 μM heparin, 2 mM DTT, and 0.5% DMSO, pH: 7.4) in a 96-well clear bottom black plate with a final reaction volume of 200 μL. The plate was then sealed with a clear sealing film and allowed to incubate at 37° C. with continuous shaking in a Biotek Synergy H1 microplate reader. An automated method was used to carry out ThT fluorescence measurements at an excitation wavelength of 444 nm and an emission wavelength of 485 nm at an interval of every 5 min for 48 h. Experiments were carried out in technical replicates on at least 2 different days. Every experiment included control wells that lacked tauP301L, heparin, or NAPs. The average signal from control wells lacking tau was used to subtract the background fluorescence, and the average of the first and last 10 data points of tau+heparin (no inhibitor) wells, after blank subtraction, was used to normalize the data. All data plots were generated with SigmaPlot.

[3] = Self-aggregation of peptides alone by ThT fluorescence; format: physicochemical; conditions: incubated alone in aq. NaOAc buffer, 48 h
Source text: as §1
Design and synthesis of aggregation-resistant backbone-aminated derivatives of mxyl-AD. The data above support the hypothesis that mxyl-AD mimetic macrocycle can engage in native-like hydrophobic cross-b interactions as well as edge-to-edge H-bonds along the fibril axis. We next sought to employ mxyl-AD as a template for the design of tau seeding inhibitors that could potentially cap fibril growth and block propagation. This required us to incorporate a chemical modification onto mxyl-AD that would preclude its ability to self-assemble without disrupting its capacity to adopt the conformation required to bind tau. We therefore designed two backbone N-amino peptide (NAP) derivatives of our tau mimic, mxyl-NAP1 and mxyl-NAP2 (Scheme 1). Each of these analogues features a backbone amide substitution that precludes canonical b-sheet H-bonding along one edge of the macrocycle, while leaving the other edge intact to engage the tau protein. […] Both mxyl-NAP1 and mxyl-NAP2, which feature a single backbone N-amino group within the amyloidogenic PHF6 module, were prepared on solid support starting from Fmoc-protected N-amino dipeptides.

tauP301L [4] = target: T2, tauP301L; test: Transmission electron microscopy of heparin-induced tauP301L fibrils; format: biochemical; conditions: 10 μM tauP301L + heparin, 20 μM NAP (2-fold molar excess), 96 h
Method: This is consistent with previous reports showing that the endpoint ThT fluorescence and fibrilization lag time for full-length tau are particularly resistant to perturbation by inhibitors. […] To confirm the effect of NAPs on the growth of mature tau fibrils, we used transmission electron microscopy (TEM) to visualize the morphology and maturity of fibrillar species. Heparin-induced tauP301L fibrils were allowed to grow over 96 h in the presence or absence of inhibitors. Untreated tauP301L afforded large, helical, and amyloid-like filamentous fibrils.
Inhibition of full-length tau fibrilization by mxyl-NAPs in TEM. To confirm the results from ThT assays, we used TEM to visualize tauP301L fibrils in the absence or presence of synthesized NAPs. As expected, heparin-induced tauP301L formed dense networks of mature fibrils (FIG. 8).
Transmission Electron Microscopy. For analyzing fibrils by TEM, aggregation was carried out under conditions similar to the assay performed above but with ThT excluded and a final reaction volume of 100 μL. Samples were incubated in a microcentrifuge tube for 4 days at 37° C. with a mixing speed of 100 rpm. A 10 μL aliquot of the sample was then applied to 400-meshed formvar-/carbon-coated copper grids and negative-stained with 2% uranyl acetate. Micrographs were obtained on a JEOL 2011 transmission electron microscope at 200 kV.

[5] = target: Human tauP301L (0N4R) with an N-terminal His6 tag (human), P10636; test: cell-based or functional assay
Human tauP301L (0N4R) with an N-terminal His6 tag (human), P10636, sequence (P10636 other isoform, or with tags, fused parts or gaps): as the sequence (P10636 1-383 isoform P10636-6 P243L) above, with L243P counted along it

- endpoint ThT fluorescence of tauP301L (tauP301L [2]): significantly reduce
- tauP301L fibril morphology by TEM (tauP301L [4]): short, immature rod-like fibrils
Molecule: Ac-Val-Gln-aIle-Val-Tyr-Lys-NH2 (Ac-VQ[aIle″]VYK-NH2) [Compound 6]
- self-aggregation, ThT fluorescence of peptide alone [3]: no such fluorescence

- fibril capping IC50 in cells (seeding of tau-RD(LM)-YFP in HEK293 biosensor cells by pre-formed tauP301L fibrils) [5]: 5 µM
B1: Ac-Val-Gln-Ile-aVal-Tyr-aLys-NH2 (13) (peptide)
peptide: Ac-VQI[aVal″]Y[N(NH2)Lys]-NH2

- fibril capping IC50 in cells (seeding of tau-RD(LM)-YFP in HEK293 biosensor cells by pre-formed tauP301L fibrils) [5]: 5 µM
B2: Ac-Val-Gln-aIle-Val-aTyr-Lys-NH2 (12) (peptide)
peptide: Ac-VQ[aIle″]V[aTyr]K-NH2

More lines, now with the values behind:

Molecule: CC[C@H](C)[C@H](NC(=O)[C@@H](N)CC(C)C)C(=O)N[C@H](C(=O)N[C@@H](CCCNC(=N)N)C(=O)N[C@@H](CC(C)C)C(=O)N[C@@H](CCC(=O)O)C(=O)N[C@@H](CC(N)=O)C(=O)N[C@H](C(N)=O)[C@@H](C)O)[C@@H](C)O [H-LITRLENT-NH2] (H-LITRLENT-NH2)
- intact peptide in 25% human serum [1]: rapidly degraded

Molecule: Ac-VPIVYK-NH2 [proline-containing analogue of PHF6 from the literature (Segal and co-workers)]
- aggregation of AcPHF6 in vitro (AcPHF6): inhibits the aggregation

Molecule: Ac-Val-Gln-aIle-Ile-Asn-Lys-NH2 (Ac-VQ[aIle″]INK-NH2) [Compound 2]
- endpoint ThT fluorescence of tauP301L (tauP301L [2]): significantly reduce
- self-aggregation, ThT fluorescence of peptide alone [3]: no such fluorescence
- tauP301L fibril morphology by TEM (tauP301L [4]): short, immature rod-like fibrils

Molecule: Ac-aVal-Gln-Ile-Val-Tyr-Lys-NH2 (Ac-[aVal″]QIVYK-NH2) [Compound 5]
- endpoint ThT fluorescence of tauP301L (tauP301L [2]): significantly reduce
- self-aggregation, ThT fluorescence of peptide alone [3]: no such fluorescence
- tauP301L fibril morphology by TEM (tauP301L [4]): short, immature rod-like fibrils
